Experimental data: the RNAGym collection of RNA variant scans (doi:10.7554/elife.80360)

B1: Hairpin Ribozyme (parent)
chain: GUCCUCUUUCACGUGCGCGUGAAAGAGAGAAGUGAACCAGAGAAACACACGUUGUGGUAUAUUACCUGGUA

Variants of: B1
Assay: self-cleavage, relative activity (ratio to wild type); higher = more cleavage; co-transcriptional
For U5G G51C, the self-cleavage was 0.221. For U5G G51A, the self-cleavage was 0.377. In the case of U5G A39U, the self-cleavage is reported as 0.11. Work on U5G A39C yielded a self-cleavage of 0.129. U5G G34C showed a self-cleavage of 0.886. U5G G34A gave a self-cleavage of 0.603. For U5C G56C, the self-cleavage was 0.159. With U5A C6U the self-cleavage was 0.228. U5A C6G showed a self-cleavage of 0.192. For U5C G15A, the self-cleavage was 0.675. Variant U5C A44U has a self-cleavage of 0.0797. Work on U5A C18G yielded a self-cleavage of 0.306. For U5A C18A, the self-cleavage was 0.525. With U5C C50A the self-cleavage was 0.0675. In the case of U5A G32C, the self-cleavage is reported as 0.0597. Work on U5A G32U yielded a self-cleavage of 0.153. U5C G25C showed a self-cleavage of 0.202. Variant U5C G25U has a self-cleavage of 0.28. U5C G69U showed a self-cleavage of 0.186. Variant U5G G19C has a self-cleavage of 0.202. For U5C U63C, the self-cleavage was 0.286. In the case of U5G A22U, the self-cleavage is reported as 0.176. U5G A22C showed a self-cleavage of 0.24. U5C G19C gave a self-cleavage of 0.435. In the case of U5C G19U, the self-cleavage is reported as 0.565. U5C A45C gave a self-cleavage of 0.0908. Work on U5C A64C yielded a self-cleavage of 0.19. With U5C A64U the self-cleavage was 0.0907. With U5C A64G the self-cleavage was 0.587. For U5A U67C, the self-cleavage was 0.111. Work on U5A U67A yielded a self-cleavage of 0.0927. With U5C U52A the self-cleavage was 0.706. With U5G C12U the self-cleavage was 0.529. For U5G C12G, the self-cleavage was 0.239. Variant U5A U55A has a self-cleavage of 0.163. With U5A U55G the self-cleavage was 0.147. Work on U5A G15C yielded a self-cleavage of 0.33. Variant U5A U33G has a self-cleavage of 0.131. For U5C A22U, the self-cleavage was 0.732. For U5C A22C, the self-cleavage was 0.586. Variant U5C C46G has a self-cleavage of 0.0996. Variant U5C U62A has a self-cleavage of 0.118. U5G A11U showed a self-cleavage of 0.0986. For U5G A11G, the self-cleavage was 0.335. With U5A U70A the self-cleavage was 0.286. For U5A U70C, the self-cleavage was 0.543. In the case of U5A G25U, the self-cleavage is reported as 0.279. With U5G G13A the self-cleavage was 0.245. With U5A C38U the self-cleavage was 0.0767. With U5A C46G the self-cleavage was 0.232. Work on U5G C16G yielded a self-cleavage of 0.146. Variant U5G C16U has a self-cleavage of 0.269. In the case of U5C C6U, the self-cleavage is reported as 0.318. For U5G C66G, the self-cleavage was 0.127. Work on U5C G13C yielded a self-cleavage of 0.47. For U5A U63G, the self-cleavage was 0.264. For U5G A28G, the self-cleavage was 0.669. With U5G G25U the self-cleavage was 0.306. In the case of U5G A24U, the self-cleavage is reported as 0.235. U5C A71C gave a self-cleavage of 1.16. With U5C A30C the self-cleavage was 0.154. Variant U5C A30G has a self-cleavage of 0.111. U5C G57A gave a self-cleavage of 0.0835. Work on U5C G57C yielded a self-cleavage of 0.0878. Variant U5G A59U has a self-cleavage of 0.0694. With U5G A44C the self-cleavage was 0.147. With U5G A44G the self-cleavage was 0.177. For U5C C18U, the self-cleavage was 0.613. For U5C G42A, the self-cleavage was 0.133. U5G C10U showed a self-cleavage of 0.317. Work on U5G G29C yielded a self-cleavage of 0.0639. U5G C6U showed a self-cleavage of 0.151. Work on U5G C6G yielded a self-cleavage of 0.224. For U5G C6A, the self-cleavage was 0.321. For U5G G42A, the self-cleavage was 0.0213. U5A G40A showed a self-cleavage of 0.17. Variant U5C A36U has a self-cleavage of 0.348. Variant U5A G57C has a self-cleavage of 0.231. For U5A G57A, the self-cleavage was 0.154. U5A G17U gave a self-cleavage of 0.395. U5A U58A gave a self-cleavage of 0.387. Variant U5A U58C has a self-cleavage of 0.615. With U5C U70G the self-cleavage was 0.664. U5C U70A gave a self-cleavage of 0.594. Work on U5G G21C yielded a self-cleavage of 0.177. With U5G C46G the self-cleavage was 0.243. With U5G C46U the self-cleavage was 0.279. Work on U5C A35G yielded a self-cleavage of 0.358. With U5A G29C the self-cleavage was 0.153. Variant U5C U9G has a self-cleavage of 0.187. With U5C U9A the self-cleavage was 0.418. U5C G34U showed a self-cleavage of 1.45. In the case of U5C G34A, the self-cleavage is reported as 0.78. U5C G34C gave a self-cleavage of 1. In the case of U5A G34C, the self-cleavage is reported as 1.27. With U5A G34A the self-cleavage was 0.435. For U5A G34U, the self-cleavage was 1.07. With U5C G40U the self-cleavage was 0.19. Work on U5C G40A yielded a self-cleavage of 0.321. With U5C G40C the self-cleavage was 0.0912. Variant U5C C38U has a self-cleavage of 0.298. In the case of U5C A39C, the self-cleavage is reported as 0.51. U5G A30U gave a self-cleavage of 0. U5G A30C gave a self-cleavage of 0.0771. With U5G C50G the self-cleavage was 0.165. For U5G C50A, the self-cleavage was 0.184. For U5C U8G, the self-cleavage was 0.429. For U5A U53G, the self-cleavage was 0.278. With U5C C65U the self-cleavage was 0.24. U5G A36G gave a self-cleavage of 0.166. U5G A31G showed a self-cleavage of 0.17. For U5G A31C, the self-cleavage was 0.091. In the case of U5G A43G, the self-cleavage is reported as 0. In the case of U5G A23C, the self-cleavage is reported as 0.431. Variant U5G A23U has a self-cleavage of 0.192. Variant U5A C50A has a self-cleavage of 0.161. With U5A C50G the self-cleavage was 0.0755. Variant U5G C48G has a self-cleavage of 0.0331. For U5G C48A, the self-cleavage was 0.125. Work on U5A G19U yielded a self-cleavage of 0.312. With U5A G19C the self-cleavage was 0.245. In the case of U5C C16U, the self-cleavage is reported as 0.71. In the case of U5C C16G, the self-cleavage is reported as 0.516. Variant U5A G68A has a self-cleavage of 0.146. With U5A G68C the self-cleavage was 0.11. U5A G56C gave a self-cleavage of 0.0893. U5A G56U showed a self-cleavage of 0.206. In the case of U5C A59U, the self-cleavage is reported as 0.0936. U5C A59G gave a self-cleavage of 0.222. With U5C U67G the self-cleavage was 0.245. Work on U5G G32C yielded a self-cleavage of 0.091. In the case of U5A C37U, the self-cleavage is reported as 0.291. U5A C37A showed a self-cleavage of 0.0853. In the case of U5G A47U, the self-cleavage is reported as 0.0832. U5C A28C showed a self-cleavage of 0.139. With U5A C48U the self-cleavage was 0.104. For U5A A64G, the self-cleavage was 0.154. Variant U5C G21U has a self-cleavage of 0.593. Work on U5C G21C yielded a self-cleavage of 0.6. U5C G21A showed a self-cleavage of 0.62. Work on U5A G42C yielded a self-cleavage of 0.106. Work on U5A G42U yielded a self-cleavage of 0.275. Work on U5G G27C yielded a self-cleavage of 0.0408. U5G A35U gave a self-cleavage of 0.156. U5C A24U gave a self-cleavage of 0.229. Work on U5G A71G yielded a self-cleavage of 0.207. Variant U5C C37G has a self-cleavage of 0.205. Variant U5A U20C has a self-cleavage of 0.358. For U5A U20G, the self-cleavage was 0.566. With U5C C48A the self-cleavage was 0.122. In the case of U5C A26G, the self-cleavage is reported as 1.26. Variant U5A G21U has a self-cleavage of 0.322. U5A C12U gave a self-cleavage of 0.314. For U5G C37U, the self-cleavage was 0.516. With U5G C37A the self-cleavage was 0.23. U5A C66A gave a self-cleavage of 0.247. U5C G68C gave a self-cleavage of 0.159. Variant U5A U52A has a self-cleavage of 0.646. Work on U5C U53G yielded a self-cleavage of 0.448. With U5C U60G the self-cleavage was 0.236. For U5C U60C, the self-cleavage was 0.549. U5G C65A showed a self-cleavage of 0.268. U5G C65U gave a self-cleavage of 0.218. In the case of U5C G51A, the self-cleavage is reported as 0.737. Work on U5A G13A yielded a self-cleavage of 0.139. U5G C18A gave a self-cleavage of 0.37. U5A U14G gave a self-cleavage of 0.233.
